Data set [1] in a line: Lyophilization buffer screens: HMW/dimer/monomer by SE-HPLC before and after lyophilization. It is filed as physicochemical. The procedure:
Size exclusion chromatography (SE-HPLC) can be used to characterize the size distribution of the IL-10 delivery construct. The percentage of IL-10 delivery construct found in dimer, monomer, and aggregate forms in a liquid composition or a lyophilized composition if reconstituted in a liquid can be determined by SEC-HPLC (FIG. 34).
Further testing based on the results from the initial liquid formulation screen, initial lyophilization feasibility studies were conducted using the conditions in TABLE 9. Glycine and mannitol, known to be useful in the lyophilization of proteins as […] bulking agents were added to this screen, histidine at pH 7.0 added to provide a more granular evaluation of the effect of pH in the 7.0-7.5 range, and trehalose was added as an option to sucrose as an osmolyte. FIGS. 21 and 22 show the percentage of target constructs in the dimer form before and after incubation at 25° C. for 3 days (FIG. 21) and before and after 5 freeze/thaw cycles (FIG. 22).
Based on the results from this initial study a second lyophilization screen was conducted using the formulations listed in TABLE 10.

Data set [2] has as its system IFNγ, IL-1β, IL-2, IL-6, IL-8, TNFα. Put plainly: Single oral capsule dose in NHP: plasma proinflammatory cytokines. The data set is classed as in vivo, Macaca fascicularis. The procedure: The panel of cytokines (IFNγ, IL-1β, IL-2, IL-6, and IL-8) was evaluated using a multiplex kit available from MSD. The assays in this panel were sandwich immunoassays. The MSD plate came precoated with capture antibodies on independent and pre-defined spots, and samples were quantitated against an 8-point standard curve prepared using a mixture of the cytokines (Proinflammatory Panel 1 (human) Calibrator Blend) from MSD. The standards included 0 pg/mL and these concentration ranges: IFNγ (0.37-1500 pg/mL), IL-1β ([…]), IL-2 (0.36-1490 pg/mL), IL-6 (0.18-721 pg/mL) and IL-8 (0.14-553 pg/mL).
The MSD plate (pre-coated with capture antibodies) was washed 3 times with PBST before use. […] Following a wash step, 2×MSD Read buffer was added to the wells of the plate, and the plate read using the MSD Sector Imager 600 plate reader. […]
The purpose of the TNFα immunoassay was to quantify NHP TNFα concentration in plasma. […] Samples were quantitated using an 8-point standard curve prepared from a human TNFα calibrator that ranges in concentration from 5.6-4052 pg/mL and includes 0 pg/mL.
The biotinylated anti-NHP TNFα capture antibody was added to a MSD Small Spot Streptavidin plate and incubated for an hour at RT with shaking. […] Following a wash step, 2×MSD Read buffer was added to the wells of the plate, and the plate read using the MSD Sector Imager 600 plate reader. […]

A short description of data set [3]: Intracolonic spray in NHP: IL-1Ra, pSTAT3, construct and IL-10 in tissue and serum. It is filed as in vivo, cynomolgus monkeys. An excerpt:
This was achieved using a colonoscope with an associated spray nozzle. In this way, refined information for onset and duration of IL-1Ra induction could be obtained at specific local doses. […] The variability of pSTAT3/total STAT3 detected was consistent with tissue capture and stability challenges in this in vivo model. Measurement of tissue delivery construct levels had similar tissue capture and stability challenges, showing low and variable amounts in the tissue samples collected (FIG. 143). […] Since IL-10 can induce cells to produce more IL-10, we also looked for induced IL-10. […] It is important to note, due to the similarity of human and NHP IL-10, that ELISA values shown could also include hIL-10 that has somehow separated from the carrier domain of the delivery construct molecule. While this cannot be ruled out, no other data supports this as an outcome and it appears likely that the majority, if not all, tissue and serum IL-10 measured represents an NHP source.

The nature of data set [4]: Purification process trains with S-650F cation exchange: yield, recovery, purity, endotoxin. The procedure: Refolding was carried out at 4° C. in a refolding solution containing 1 mM reduced glutathione, 0.5 mM oxidized glutathione, 1M Arginine-HC, 250 mM sucrose, 100 mM Tris pH 8.5 at 4° C., and 2 mM EDTA. […] Buffer A for the CHT bind/elute step in Table 56 may also comprise 25 mM Tris, pH7.5, 300 mM NaCl, 5.0 mM NaPi, 0.5 mM CaCl2. Columns used are described in Table 58.
The yield, recovery, and purity of the IL-10 delivery construct was assess after each step, and after each process train.
It was surprising that a cation exchange resin was useful in the purification of the IL-10 delivery construct as cation exchange resins are negatively charged, and thus bind to proteins with a positive charge. Here, the IL-10 delivery construct has a calculated isoelectric point (pI) of 5.49, and thus is anticipated to have a negative charge under conditions traditionally used in a cation exchange chromatography.

[5] abbreviates: secondary formulation buffer screen, 0.3% Poloxamer.
The mark [6] stands for this setting: Control: Capto Q ImpRes, CHT gradient B/E (Table 59).
[7] abbreviates: Control: Capto Q, CHT (Linear elution), based on historical data (Table 60).
The mark [8] stands for this setting: PT1: Capto Q, S-650F, CHT (FT mode) (Table 60).
[9] abbreviates: PT2: Capto Q ImpRes, CHT step B/E 80 mM NaPi, S-650F (Table 59).
The mark [10] stands for this setting: PT2: Capto Q, CHT (Step elution), S-650F (Table 60).
Setting [11] is: PT3: S-650F, Capto Q, CHT (FT mode) (Table 60).

B1: IL-10 delivery construct: recombinant homodimeric fusion protein: N-terminal methionine, cholix386 domain, polyGlySer spacer, recombinant human IL-10 (protein)
chain: MVEEALNIFDECRSPCSLTPEPGKPIQSKLSIPSDVVLDEGVLYYSMTINDEQNDIKDEDKGESIITIGEFATVRATRHYVNQDAPFGVIHLDITTENGTKTYSYNRKEGEFAINWLVPIGEDSPASIKISVDELDQQRNIIEVPKLYSIDLDNQTLEQWKTQGNVSFSVTRPEHNIAISWPSVSYKAAQKEGSRHKRWAHWHTGLALCWLVPMDAIYNYITQQNCTLGDNWFGGSYETVAGTPKVITVKQGIEQKPVEQRIHFSKGNAMSALAAHRVCGVPLETLARSRKPRDLTDDLSCAYQAQNIVSLFVATRILFSHLDSVFTLNLDEQEPEVAERLSDLRRINENNPGMVTQVLTVARQIYNDYVTHHPGLTPEQTSAGAQAGGGGSGGGGSGGGGSPGQGTQSENSCTHFPGNLPNMLRDLRDAFSRVKTFFQMKDQLDNLLLKESLLEDFKGYLGCQALSEMIQFYLEEVMPQAENQDPDIKAHVNSLGENLKTLRLRLRRCHRFLPCENKSKAVEQVKNAFNKLQEKGIYKAMSEFDIFINYIEAYMTMKIRN
modifications: homodimer
Consider B1, for which the “stability with respect to aggregation” value in data set [1] (initial lyophilization feasibility study, conditions of TABLE 9) is “more stable at pH7.5 with sucrose and glycine”. Moreover, the “Pre-Lyophilization (%) Dimer” value in data set [1] (setting [5]) is recorded as 89.2%. Also, the “Pre-Lyophilization (%) HMW” value in data set [1] (setting [5]) turned out to be 2.6%. For the same molecule, in data set [1] (setting [5]), the “Pre-Lyophilization (%) Monomer” value is given as 8.2%. In addition, the “plasma IFNγ, IL-1β, IL-2, IL-8, IL-6” value in data set [2] (1, 4, 20.5, 82 mg oral capsules) is recorded as “not associated with any consistent trends”. In addition, the “plasma TNFα” value in data set [2] (all samples) is given as “below the limit of detection”. Moreover, in data set [3], the “serum levels of IL-10” value is reported as “increased in a dose-dependent manner”. Also, the “serum levels of the delivery construct” value in data set [3] (1, 3, or 10 mg colonic spray) is “below the assay detection limit”. Moreover, in data set [3] (cynomolgus monkey, in vivo), the “time to reach the lamina propria following luminal application” value is roughly 15 min. In data set [3] (within 15 min after spray), the “tissue IL-10 levels” value was “dose-dependent and transient increases”. Also, the Purity in data set [4] (setting [6]) is 78.2; in data set [4] (setting [7]), “*85%”; in data set [4] (setting [8]), 92%; in data set [4] (setting [9]), 78.5%; in data set [4] (setting [10]) it was 91%; in data set [4] (setting [11]), 96%. Also, the figures for the Yield in data set [4] (setting [6]) and in data set [4] (setting [9]) were 68 mg and 26 mg, respectively. In addition, the Endotoxin result in data set [4] (setting [7]) is “*8 EU/mg”; in data set [4] (setting [8]), 8.9 EU/mg; in data set [4] (setting [10]), 5 EU/mg; in data set [4] (setting [11]) it was 0.4 EU/mg.

Values taken from patent US11160869B2 (priority 2019, dated 2021).
